In patent publication US20080267971A1 (published 2008):
Where a chain is given by its changes, count along the chain named.

T1: human Angiopoietin-1 (human, UniProt Q15389 20-498, limits assumed)
T1 construct: Bought recombinant protein (R&D Systems 293-AN-025/CF) or supernatant of transfected 293F cells; also called Ang-1; recombinant Ang-1
T1 sequence: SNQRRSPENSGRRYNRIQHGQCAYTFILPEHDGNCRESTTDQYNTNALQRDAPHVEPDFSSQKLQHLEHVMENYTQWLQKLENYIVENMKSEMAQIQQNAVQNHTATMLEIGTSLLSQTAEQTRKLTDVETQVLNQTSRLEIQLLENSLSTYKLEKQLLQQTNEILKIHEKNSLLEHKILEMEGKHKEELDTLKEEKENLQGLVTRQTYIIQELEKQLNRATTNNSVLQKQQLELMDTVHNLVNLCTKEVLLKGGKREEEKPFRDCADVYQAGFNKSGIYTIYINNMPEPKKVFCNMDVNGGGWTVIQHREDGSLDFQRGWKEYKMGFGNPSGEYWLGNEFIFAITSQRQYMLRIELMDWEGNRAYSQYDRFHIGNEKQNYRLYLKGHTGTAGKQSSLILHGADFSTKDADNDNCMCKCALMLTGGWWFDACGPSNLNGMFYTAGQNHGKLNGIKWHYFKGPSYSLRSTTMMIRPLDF

T2: human Angiopoietin-2 (human, UniProt O15123 19-496)
T2 construct: Mostly bought recombinant protein (R&D Systems 623-AM/CF, 623-AN; biotinylated BT623) or supernatant of transfected 293F cells; also called Ang-2; rhAng-2
T2 sequence: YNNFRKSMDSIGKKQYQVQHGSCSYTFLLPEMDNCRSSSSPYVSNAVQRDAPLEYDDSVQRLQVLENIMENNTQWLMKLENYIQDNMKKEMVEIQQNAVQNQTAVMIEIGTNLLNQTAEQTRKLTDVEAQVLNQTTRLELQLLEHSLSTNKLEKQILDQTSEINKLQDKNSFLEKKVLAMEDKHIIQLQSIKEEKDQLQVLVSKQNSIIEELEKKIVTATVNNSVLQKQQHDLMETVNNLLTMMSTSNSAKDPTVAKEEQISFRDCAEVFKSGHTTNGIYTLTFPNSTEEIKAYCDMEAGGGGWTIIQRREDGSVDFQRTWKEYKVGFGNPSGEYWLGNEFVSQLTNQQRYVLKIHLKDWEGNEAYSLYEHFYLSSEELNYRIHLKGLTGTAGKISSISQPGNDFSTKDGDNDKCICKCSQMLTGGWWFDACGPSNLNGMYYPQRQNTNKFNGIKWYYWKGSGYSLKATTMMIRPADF

T3: mouse Angiopoietin-2 (mouse, UniProt O35608 19-496)
T3 construct: Used as conditioned medium of transfectants; also called mAng-2; mouse Ang-2
T3 sequence: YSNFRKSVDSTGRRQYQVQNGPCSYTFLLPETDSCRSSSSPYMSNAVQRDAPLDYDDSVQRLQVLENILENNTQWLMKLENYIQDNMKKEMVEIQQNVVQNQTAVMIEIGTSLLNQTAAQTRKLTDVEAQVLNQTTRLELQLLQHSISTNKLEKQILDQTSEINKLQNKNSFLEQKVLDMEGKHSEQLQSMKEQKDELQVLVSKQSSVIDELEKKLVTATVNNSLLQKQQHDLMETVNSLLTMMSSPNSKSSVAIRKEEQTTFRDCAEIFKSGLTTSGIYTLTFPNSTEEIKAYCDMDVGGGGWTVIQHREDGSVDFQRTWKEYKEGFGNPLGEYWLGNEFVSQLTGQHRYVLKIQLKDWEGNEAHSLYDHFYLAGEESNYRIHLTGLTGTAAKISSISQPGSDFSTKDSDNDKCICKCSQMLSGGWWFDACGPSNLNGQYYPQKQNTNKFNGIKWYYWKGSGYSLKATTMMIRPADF

T4: human Ang-2443 (human, UniProt O15123 19-496)
T4 construct: Splice variant missing amino acids 96-148; supernatant of transfected 293F cells
T4 sequence: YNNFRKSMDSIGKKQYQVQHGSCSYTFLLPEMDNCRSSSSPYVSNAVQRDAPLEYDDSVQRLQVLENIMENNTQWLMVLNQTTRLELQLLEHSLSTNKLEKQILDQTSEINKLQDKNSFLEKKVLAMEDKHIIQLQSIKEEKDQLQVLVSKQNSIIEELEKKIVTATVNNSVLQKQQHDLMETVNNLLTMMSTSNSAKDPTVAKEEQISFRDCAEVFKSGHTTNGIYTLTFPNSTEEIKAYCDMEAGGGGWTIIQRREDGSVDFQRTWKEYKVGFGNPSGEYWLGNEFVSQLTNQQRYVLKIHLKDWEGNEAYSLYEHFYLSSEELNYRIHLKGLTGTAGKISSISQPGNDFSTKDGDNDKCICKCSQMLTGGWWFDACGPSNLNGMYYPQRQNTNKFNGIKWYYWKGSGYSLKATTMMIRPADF

B1: mAb 5.83.1 (antibody, V domains shown)
VH: not shown
VL: EIVMTQSPATLSVSPGERATLSCRASQSLISNLAWYQQKPGQAPRLLIFGASTRATGIPARFSGSGSGTEFTLTISSLQSEDFAVYYCHQYNNWWTFGQGTKVEIKR
notes: Human hybridoma IgG (XenoMouse); also called x5.83
B2: mAb 5.54.1 (antibody, V domains shown)
VH: not shown
VL: B1 VL with V85I
notes: Human hybridoma IgG (XenoMouse); also called x5.54
B3: mAb 5.101.1 (antibody, V domains shown)
VH: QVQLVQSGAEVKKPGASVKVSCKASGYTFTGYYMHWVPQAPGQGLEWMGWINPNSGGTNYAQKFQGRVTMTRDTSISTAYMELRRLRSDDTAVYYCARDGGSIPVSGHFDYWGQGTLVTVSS
VL: B1 VL
notes: Human hybridoma IgG (XenoMouse); also called x5.101
B4: mAb 3.19.3 (antibody, V domains shown)
VH: QVQLVESGGGVVQPGRSLRLSCAASGFTFTNYGMHWGRQAPGKGLEWVAVISHDGNNKYYVDSVKGRFTISRDNSKNTLYLQMNSLRAEDTAVYYCAREGIDFWSGLNWFDPWGQGTLVTVSS
VL: EIVLTQSPGTLSLSPGERATLSCRASQSITGSYLAWYQQKPGQAPRLLICGASSWATGIPDRFSGSGSGTDFTLTISRLEPEDFAVYYCQQYSSSPITFGQGTRLEIKR
notes: Human hybridoma IgG (XenoMouse); also called x3.19
B5: mAb 5.86.1 (antibody, V domains shown)
VH: QVQLVQSGAEVKKPGASVKVSCKASGYTFTGYHMYWVRQAPGQGLEWLGWINPNSGGTNYAQKFQGRVTMTRDTSISTAYMELSRLRSDDTAVYYCVRDQGIAAAGPFDYWCQGTLVTVSS
VL: DIRMTQSPSSLSASVGDRVTITCRASQRISTYLNWYQQKPGKAPKFLIYAASSLQSGVPSRFSGSGSGTDFTLTISSLQPEDFATYYCQQSYTTPFTFGPGTKVDIKR
notes: Human hybridoma IgG (XenoMouse); also called x5.86
B6: mAb 5.88.3 (antibody, V domains shown)
VH: EVQMVESGGGLVQPGGSLRLSCAASGFTLRSYWMSWVRQAPGKGLEWVANIKEDGSEKYHVDSVKGRFTISRDNAENSLFLQMSSLRAEDTAVYYCARDMEASAGLFDYWGQGTLVTVSS
VL: B1 VL with T20I, L29I, I30S, F49Y, H89Q, N93Y
notes: Human hybridoma IgG (XenoMouse); also called x5.88
B7: mAb 3.31.2 (antibody, V domains shown)
VH: EVQLVESGGGLVQPGGSLRLSCAASGFTFSSYWMSWVRQAPGKGLEWVANIKQDGSDKYYVDSVKGRFTISRDNAKNSLYLRMNSLRAEDTAVFYCARDMGSGWFDYWGQGTLVTVSS
VL: B1 VL with I2V, L29V, I30G, F49Y, Y87C, H89Q, N93H
notes: Human hybridoma IgG (XenoMouse); also called x3.31
B8: mAb 5.13.1 (antibody, V domains shown)
VH: EVQLVESGGGLVQPGGSLRLSCAASGFTFSSYWMSWVRQAPGKGLEWVANIKQDGSEKYYVDSVKGRFTISRDNAKNSLYLQMNSLRAEDTAVYYCARDPGIAVAGPFDYWGQGTLVTVSS
VL: B1 VL with L29V, I30S, F49Y, H89Q, N93H
notes: Human hybridoma IgG (XenoMouse); also called x5.13
B9: mAb 3.3.2 (antibody, V domains shown)
VH: B8 VH with A24V, P100Q
VL: B1 VL with S28T, L29V, I30S, N32D, F49Y, T53I, Y87S, H89Q, N92Y
notes: Human hybridoma IgG (XenoMouse); also called 3.3.1; x3.3
B10: mAb 5.28.1 (antibody, V domains shown)
VH: EVQLVESGGIVVQPGGSLRLSCAASGFTFDDYTMHWVRQTPGKGLEWVSLISWDGGSTYYADSVKGRFTISRDNSKNSLYLQMNSLRTEDTALYYCAKDIDIAVAGTGFDHWGQGTLVTVSS
VL: EIVMTQSPATLSVSPGERATLSCRASQSVTSNLAWYQQKPGQAPRLLIYGALIRATGIPARFSGSGSGTEFTLTISSLQSEDFAVYYCQQYNNWPFTFGPGTKVDIKR
notes: Human hybridoma IgG (XenoMouse); also called x5.28
B11: mAb 5.52.1 (antibody, V domains shown)
VH: QVQLVESGGGVVQPGRSLRLSCAASGFTFSSYGMHWVRQAPGKGLEWVAVRWYDESNKYYADSVKGRFTISRDNSKNTLYLQMNSLRAEDTAVYYCARDPFETGTTFDYWGQGTLVTVSS
VL: DIQMTQSPSSVSASVGDRVTITCRASQGISSWLAWYQQKPGKAPKLLIYAVSSLESGVPSRFSGSGSGTDFTLTISSLQPEDFATYYCQQALTFGGGTKVEIKR
notes: Human hybridoma IgG (XenoMouse); the line 5.52 has entries of its own (347, 349; light chain L2) that differ from the clone 5.52.1 (L5); also called x5.52
B12: mAb 5.56.1 (antibody, V domains shown)
VH: QVQLVESGGGVVQPGRSLRLSCAASGFTFSSYGMHWVRQAPGKGLEWVAVIWYDGSNKYYADSVKGRFTISRDNSKNTLYLQMNSLRAEDTAVYYCAREDNWNFYFDYWGQGTLVTVSS
VL: DIQMTQSPSSLSASVGDRVTITCRASQGISYYLAWYQQKPGKVPKLLIYAASTLQSGVPSRFSGSGSGTDFTLTISSLQPEDVATYYCQKYNSAPFTFGPGTKVDIKR
notes: Human hybridoma IgG (XenoMouse); also called x5.56

Assays:
human Angiopoietin-1 = biological target: T1, human Angiopoietin-1; experiment: capture ELISA
Procedure: The binding of the top 27 human monoclonal antibodies was detected with a HRP-conjugated goat anti-human antibody, followed by colorimetric horseradish peroxidase substrate (Enhanced K-Blue TMB substrate Neogen Corporation). The absorbance of each well of the ELISA plates was measured at 450 nm on a microplate autoreader.

human Angiopoietin-2 [1] = biological target: T2, human Angiopoietin-2; experiment: Biacore, mAb captured
Procedure: (§1) The label-free surface plasmon resonance (SPR), or Biacore, was utilized to measure the antibody affinity to the antigen. For this purpose, a high-density goat anti-human antibody surface over a CM5 Biacore chip was prepared using routine amine coupling. All the purified mAbs were diluted to approximately 8 μg/ml in HBS-P running buffer containing 100 μg/ml BSA and 10 mg/mL carboxymethyldextran. Each mAb was captured on a separate surface using a 42-second contact time, and a 5-minute wash for stabilization of the mAb baseline.
(§2) Data were fit globally to a 1:1 interaction model to determine the binding kinetics.

mouse Angiopoietin-2 = biological target: T3, mouse Angiopoietin-2; experiment: ELISA, recombinant mouse Ang-2
human Angiopoietin-2 [2] = biological target: T2, human Angiopoietin-2; experiment: Biacore; kd held constant (*)
Procedure: as §1, §2

human Ang-2443 = biological target: T4, human Ang-2443; experiment: ELISA

Row | Binder | binding result (human Angiopoietin-1) | Kd (human Angiopoietin-2 [1]) [nM] | kon (human Angiopoietin-2 [1]) [M⁻¹ s⁻¹] | binding result (mouse Angiopoietin-2) | koff (human Angiopoietin-2 [2]) [s⁻¹] | % of binding to human Ang-2 (human Ang-2443) [%] | koff (human Angiopoietin-2 [1]) [s⁻¹]
1 | B1 | no binding | ≤ 0.147 | 68000 | no binding | ≤ 1e-05 | 100 | –
2 | B2 | no binding | ≤ 0.066 | 150000 | no binding | ≤ 1e-05 | 100 | –
3 | B3 | no binding | 0.581 | 150000 | no binding | – | 100 | 8.7e-05
4 | B4 | – | ≤ 0.111 | 90000 | – | ≤ 1e-05 | 100 | –
5 | B5 | no binding | 0.744 | 150000 | no binding | – | 100 | 0.00011
6 | B6 | no binding | ≤ 0.037 | 270000 | no binding | ≤ 1e-05 | 100 | –
7 | B7 | no binding | ≤ 0.051 | 190000 | – | ≤ 1e-05 | 100 | –
8 | B8 | no binding | ≤ 0.047 | 210000 | no binding | ≤ 1e-05 | 100 | –
9 | B9 | – | ≤ 0.033 | 300000 | no binding | ≤ 1e-05 | 100 | –
10 | B10 | no binding | ≤ 0.04 | 250000 | – | ≤ 1e-05 | 100 | –
11 | B11 | – | ≤ 0.75 | 13000 | – | – | 100 | –
12 | B12 | no binding | ≤ 0.052 | 190000 | – | ≤ 1e-05 | 100 | –
